From the supplement of paper PMC5998384

What was measured:
HeLa Kyoto [1] = experiment: solubility change mitosis vs G1/S (difference of NP-40 vs SDS log2 ratios) (log2 ratio difference); higher = more soluble in mitosis
HeLa Kyoto [2] = experiment: thermal stability score vs G1/S (z-score of summed log2 fold changes over temperatures); higher = more thermally stable than in G1/S
HeLa Kyoto [3] = experiment: melting temperature (median over replicates), in situ; higher = more thermally stable
HeLa Kyoto [4] = experiment: solubility in G1/S (NP-40 vs SDS abundance) (log2 ratio); higher = more soluble; settings: cell cycle stage: G1/S
[5] = cell cycle stage: early G1 (4.5 h after nocodazole release)
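Wherever melting temperature (median over replicates), in situ is given: HeLa Kyoto cells synchronized by double thymidine or nocodazole block, proteins quantified by TMT10plex mass spectrometry, three independent biological replicates.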
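Wherever solubility change mitosis vs G1/S (difference of NP-40 vs SDS log2 ratios) is given: synchronized HeLa Kyoto cells (double thymidine block for G1/S, nocodazole release for mitosis), protein amounts in NP-40 versus SDS lysates quantified by mass spectrometry, three biological replicates.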
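Wherever solubility in G1/S (NP-40 vs SDS abundance) is given: HeLa Kyoto cells arrested at G1/S by double thymidine block, proteins quantified by TMT10plex mass spectrometry in mild NP-40 versus SDS extracts, three biological replicates.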
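Wherever thermal stability score vs G1/S (z-score of summed log2 fold changes over temperatures) is given: synchronized HeLa Kyoto cells, proteins quantified by TMT10plex mass spectrometry, three biological replicates, mitosis taken 0.5 h after nocodazole release, G1/S directly after double thymidine block.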

| Sequence | solubility change mitosis (log2) (HeLa Kyoto [1]) | thermal stability score (HeLa Kyoto [2]; [5]) | thermal stability score (HeLa Kyoto [2]; cell cycle stage: mitosis) | melting temperature (HeLa Kyoto [3]; cell cycle stage: G1/S) | melting temperature (HeLa Kyoto [3]; cell cycle stage: mitosis) | solubility in G1/S (log2) (HeLa Kyoto [4]) |
| --- | --- | --- | --- | --- | --- | --- |
| MACGFRRAIACQLSRVLNLPPENLITSISAVPISQKEEVADFQLSVDSLLEKDNDHSRPDIQVQAKRLAEKLRCDTVVSEISTGQRTVNFKINRELLTKTVLQQVIEDGSKYGLKSELFSGLPQKKIVVEFSSPNVAKKFHVGHLRSTIIGNFIANLKEALGHQVIRINYLGDWGMQFGLLGTGFQLFGYEEKLQSNPLQHLFEVYVQVNKEAADDKSVAKAAQEFFQRLELGDVQALSLWQKFRDLSIEEYIRVYKRLGVYFDEYSGESFYREKSQEVLKLLESKGLLLKTIKGTAVVDLSGNGDPSSICTVMRSDGTSLYATRDLAAAIDRMDKYNFDTMIYVTDKGQKKHFQQVFQMLKIMGYDWAERCQHVPFGVVQGMKTRRGDVTFLEDVLNEIQLRMLQNMASIKTTKELKNPQETAERVGLAALIIQDFKGLLLSDYKFSWDRVFQSRGDTGVFLQYTHARLHSLEETFGCGYLNDFNTACLQEPQSVSILQHLLRFDEVLYKSSQDFQPRHIVSYLLTLSHLAAVAHKTLQIKDSPPEVAGARLHLFKAVRSVLANGMKLLGITPVCRM [RARS2] | -0.141 | -0.261 | -0.261 | 51.7 °C | 50.8 °C | -0.144 |
| MACSIVQFCYFQDLQAARDFLFPHLREEILSGALRRDPSKSTDWEDDGWGAWEENEPQEPEEEGNTCKTQKTSWLQDCVLSLSPTNDLMVIAREQKAVFLVPKWKYSDKGKEEMQFAVGWSGSLNVEEGECVTSALCIPLASQKRSSTGRPDWTCIVVGFTSGYVRFYTENGVLLLAQLLNEDPVLQLKCRTYEIPRHPGVTEQNEELSILYPAAIVTIDGFSLFQSLRACRNQVAKAAASGNENIQPPPLAYKKWGLQDIDTIIDHASVGIMTLSPFDQMKTASNIGGFNAAIKNSPPAMSQYITVGSNPFTGFFYALEGSTQPLLSHVALAVASKLTSALFNAASGWLGWKSKHEEEAVQKQKPKVEPATPLAVRFGLPDSRRHGESICLSPCNTLAAVTDDFGRVILLDVARGIAIRMWKGYRDAQIGWIQTVEDLHERVPEKADFSPFGNSQGPSRVAQFLVIYAPRRGILEVWSTQQGPRVGAFNVGKHCRLLYPGYKIMGLNNVTSQSWQPQTYQICLVDPVSGSVKTVNVPFHLALSDKKSERAKDMHLVKKLAALLKTKSPNLDLVETEIKELILDIKYPATKKQALESILASERLPFSCLRNITQTLMDTLKSQELESVDEGLLQFCANKLKLLQLYESVSQLNSLDFHLDTPFSDNDLALLLRLDEKELLKLQALLEKYKQENTRTNVRFSDDKDGVLPVKTFLEYLEYEKDVLNIKKISEEEYVALGSFFFWKCLHGESSTEDMCHTLESAGLSPQLLLSLLLSVWLSKEKDILDKPQSICCLHTMLSLLSKMKVAIDETWDSQSVSPWWQQMRTACIQSENNGAALLSAHVGHSVAAQISNNMTEKKFSQTVLGADSEALTDSWEALSLDTEYWKLLLKQLEDCLILQTLLHSKGNTQTSKVSSLQAEPLPRLSVKKLLEGGKGGIADSVAKWIFKQDFSPEVLKLANEERDAENPDEPKEGVNRSFLEVSEMEMDLGAIPDLLHLAYEQFPCSLELDVLHAHCCWEYVVQWNKDPEEARFFVRSIEHLKQIFNAHVQNGIALMMWNTFLVKRFSAATYLMDKVGKSPKDRLCRRDVGMSDTAMTSFLGSCLDLLQILMEADVSRDEIQVPVLDTEDAWLSVEGPISIVELALEQKHIHYPLVEHHSILCSILYAVMRFSLKTVKPLSLFDSKGKNAFFKDLTSIQLLPSGEMDPNFISVRQQFLLKVVSAAVQAQHSATKVKDPTEEATPTPFGKDQDWPALAVDLAHHLQVSEDVVRRHYVGELYNYGVDHLGEEAILQVHDKEVLASQLLVLTGQRLAHALLHTQTKEGMELLARLPPTLCTWLKAMDPQDLQNTEVPIATTAKLVNKVIELLPEKHGQYGLALHLIEAVEAISLPSL [RAB3GAP2] | -0.143 | 1.1 | 1.85 | 48.7 °C | 49.2 °C | 0.0196 |
| MADAFGDELFSVFEGDSTTAAGTKKDKEKDKGKWKGPPGSADKAGKRFDGKLQSESTNNGKNKRDVDFEGTDEPIFGKKPRIEESITEDLSLADLMPRVKVQSVETVEGCTHEVALPAEEDYLPLKPRVGKAAKEYPFILDAFQREAIQCVDNNQSVLVSAHTSAGKTVCAEYAIALALREKQRVIFTSPIKALSNQKYREMYEEFQDVGLMTGDVTINPTASCLVMTTEILRSMLYRGSEVMREVAWVIFDEIHYMRDSERGVVWEETIILLPDNVHYVFLSATIPNARQFAEWICHLHKQPCHVIYTDYRPTPLQHYIFPAGGDGLHLVVDENGDFREDNFNTAMQVLRDAGDLAKGDQKGRKGGTKGPSNVFKIVKMIMERNFQPVIIFSFSKKDCEAYALQMTKLDFNTDEEKKMVEEVFSNAIDCLSDEDKKLPQVEHVLPLLKRGIGIHHGGLLPILKETIEILFSEGLIKALFATETFAMGINMPARTVLFTNARKFDGKDFRWISSGEYIQMSGRAGRRGMDDRGIVILMVDEKMSPTIGKQLLKGSADPLNSAFHLTYNMVLNLLRVEEINPEYMLEKSFYQFQHYRAIPGVVEKVKNSEEQYNKIVIPNEESVVIYYKIRQQLAKLGKEIEEYIHKPKYCLPFLQPGRLVKVKNEGDDFGWGVVVNFSKKSNVKPNSGELDPLYVVEVLLRCSKESLKNSATEAAKPAKPDEKGEMQVVPVLVHLLSAISSVRLYIPKDLRPVDNRQSVLKSIQEVQKRFPDGIPLLDPIDDMGIQDQGLKKVIQKVEAFEHRMYSHPLHNDPNLETVYTLCEKKAQIAIDIKSAKRELKKARTVLQMDELKCRKRVLRRLGFATSSDVIEMKGRVACEISSADELLLTEMMFNGLFNDLSAEQATALLSCFVFQENSSEMPKLTEQLAGPLRQMQECAKRIAKVSAEAKLEIDEETYLSSFKPHLMDVVYTWATGATFAHICKMTDVFEGSIIRCMRRLEELLRQMCQAAKAIGNTELENKFAEGITKIKRDIVFAASLYL [SKIV2L2] | 0.119 | 0.414 | -1.19 | 51.3 °C | 51.2 °C | -0.515 |
| MADDIDIEAMLEAPYKKDENKLSSANGHEERSKKRKKSKSRSRSHERKRSKSKERKRSRDRERKKSKSRERKRSRSKERRRSRSRSRDRRFRGRYRSPYSGPKFNSAIRGKIGLPHSIKLSRRRSRSKSPFRKDKSPVREPIDNLTPEERDARTVFCMQLAARIRPRDLEEFFSTVGKVRDVRMISDRNSRRSKGIAYVEFVDVSSVPLAIGLTGQRVLGVPIIVQASQAEKNRAAAMANNLQKGSAGPMRLYVGSLHFNITEDMLRGIFEPFGRIESIQLMMDSETGRSKGYGFITFSDSECAKKALEQLNGFELAGRPMKVGHVTERTDASSASSFLDSDELERTGIDLGTTGRLQLMARLAEGTGLQIPPAAQQALQMSGSLAFGAVAEFSFVIDLQTRLSQQTEASALAAAASVQPLATQCFQLSNMFNPQTEEEVGWDTEIKDDVIEECNKHGGVIHIYVDKNSAQGNVYVKCPSIAAAIAAVNALHGRWFAGKMITAAYVPLPTYHNLFPDSMTATQLLVPSRR [RBM39] | 0.531 | 1.15 | 5.82 | 47.2 °C | 49.3 °C | -1.07 |
